Biological target: double-stranded RNA adenosine deaminase (dsrad, 140 kDa Z-DNA binding protein) (Gallus gallus) (UniProt A0A8V1AB28)
Test: competition
Settings: bandshift competition

Chain of UniProt A0A8V1AB28 (A0A8V1AB28 entry or part of it): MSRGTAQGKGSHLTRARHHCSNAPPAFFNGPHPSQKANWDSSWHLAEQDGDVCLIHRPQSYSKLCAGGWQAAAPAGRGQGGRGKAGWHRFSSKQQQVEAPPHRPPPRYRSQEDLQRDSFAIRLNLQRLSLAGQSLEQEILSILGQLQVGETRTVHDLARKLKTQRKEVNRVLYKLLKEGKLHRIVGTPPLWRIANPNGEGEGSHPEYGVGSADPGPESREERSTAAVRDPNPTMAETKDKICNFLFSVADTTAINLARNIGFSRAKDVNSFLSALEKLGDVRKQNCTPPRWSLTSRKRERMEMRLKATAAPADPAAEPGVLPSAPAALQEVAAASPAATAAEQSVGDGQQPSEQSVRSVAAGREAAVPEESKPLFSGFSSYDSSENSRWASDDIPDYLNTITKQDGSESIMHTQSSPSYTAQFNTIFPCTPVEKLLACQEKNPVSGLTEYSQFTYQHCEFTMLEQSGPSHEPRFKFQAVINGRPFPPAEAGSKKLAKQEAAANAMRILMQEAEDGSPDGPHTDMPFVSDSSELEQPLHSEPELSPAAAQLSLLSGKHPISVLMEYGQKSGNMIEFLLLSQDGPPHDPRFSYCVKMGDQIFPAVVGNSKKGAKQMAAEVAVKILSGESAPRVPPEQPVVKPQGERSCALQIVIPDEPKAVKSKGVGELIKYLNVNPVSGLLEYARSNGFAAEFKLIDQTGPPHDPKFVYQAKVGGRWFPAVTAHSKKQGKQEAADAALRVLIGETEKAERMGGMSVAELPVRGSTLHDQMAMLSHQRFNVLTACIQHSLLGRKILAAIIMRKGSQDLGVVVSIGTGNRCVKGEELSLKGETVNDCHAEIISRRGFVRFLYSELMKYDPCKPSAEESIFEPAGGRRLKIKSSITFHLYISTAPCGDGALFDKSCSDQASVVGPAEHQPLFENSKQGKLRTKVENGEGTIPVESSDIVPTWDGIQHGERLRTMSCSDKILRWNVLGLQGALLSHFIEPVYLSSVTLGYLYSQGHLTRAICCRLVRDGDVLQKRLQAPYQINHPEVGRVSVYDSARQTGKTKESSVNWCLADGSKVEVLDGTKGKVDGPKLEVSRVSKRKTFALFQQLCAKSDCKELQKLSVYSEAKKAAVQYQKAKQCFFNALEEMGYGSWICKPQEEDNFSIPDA

Work on “pDHg16 supercoiled plasmid with d(CG)13 insert” yielded a binding signal (reference, bacterial superhelical density) of 1 fold.

In the case of pDHg16 relaxed by topoisomerase I, the binding signal (fold weaker than supercoiled) (relaxed with calf thymus topoisomerase I) is reported as 100.

From patent publication US5726050
